Assay results: US9486502B2, “Methods of administering interferon gamma to absorb fluid from the subretinal space” (The United States of America, as represented by the …, priority 2008, dated 2016)
“Also recorded” adds a separate entry of the source.

How the values were obtained:
hfRPE = assay: quantitative real-time PCR of gene expression in IFNγ-treated hfRPE; format: cell-based, human; conditions: for Threshold Cycle (Ct) CFTR / Threshold Cycle (Ct) IFNGR1 / Threshold Cycle (Ct) IFNGR2 / Threshold Cycle (Ct) IRF-1 / Threshold Cycle (Ct) IRF-2 / Threshold Cycle (Ct) PIAS1 / Threshold Cycle (Ct) SOCS3 / Threshold Cycle (Ct) STAT1 / Threshold Cycle (Ct) NOS2A / Threshold Cycle (Ct) IRF-8: IFNγ 25 ng/ml
Protocol: qRT-PCR was performed as previously described in Li, R. et al., 2007, Invest Ophthalmol Vis Sci, 48, 5722-5732—incorporated by reference in its entirety herein. Confluent monolayers of hfRPE cultured in 24-well plates were treated with IFNγ (25 ng/ml) in SFM and harvested at 0 minutes, 30 minutes, 2 hours, 6 hours, 15 hours and 24 hours, in triplicate for each time point. 1 μg total mRNA isolated from the harvested cells (RNeasy Kit, Qiagen) was reverse-transcribed (SuperScript® III First-Strand Synthesis System for RT-PCR, Invitrogen). Real-time PCR (TagMan®, Applied Biosystems) was used to quantify expression of the interferon regulatory factors IRF-1, IRF-2, and IRF-8; signal transducer and activator of transcription 1 (STAT1); suppressor of cytokine signaling 3 (SOCS3); protein inhibitor of activated STAT1 (PIAS1); inducible nitric oxide synthase (NOS2A); IFNγ receptor subunit R1 (IFNGR1); IFNα receptor subunit R1 (IFNAR1); IFNγ receptor subunit R2 (IFNGR2); cystic fibrosis transmembrane conductance regulator (CFTR); and Glyceraldehyde 3-phosphate dehydrogenase (GAPDH). The mRNA concentration of each gene was normalized against GAPDH. qRT-PCR was performed on the ABI Sequence Detection System 7900 (Applied Biosystems).

rat RPE = assay: in vivo retinal re-attachment assay (OCT)
Protocol: All animal experiments were conducted in compliance with the ARVO Statement for the use of Animals in Ophthalmic and Vision Research, and the protocol was approved by the Animal Care and Use Committee of the National Institutes of Health. The procedures have been described in detail in Maminishkis, A., et al., Invest Ophthalmol Vis Sci, 2006, 47, 3612-3624, incorporated by reference in its entirety herein. Briefly, retinal detachments were created in long-Evans rats by injecting 0.5 to 3 μl of modified phosphate-buffered saline (MPBS) Ringer's solution into the sub-retinal space (SRS), which separates the photoreceptor outer segments and the apical membrane of the RPE. In the control portion of each experiment (at 0-70 minutes after creation of the retinal detachment), the rate of change of bleb volume was measured. The control period of “constant” volume was defined by JV≦2 μl hr cm over at least 40 minutes. Any control injections that exceeded this threshold rate were rejected from subsequent analysis.
IFNγ was dissolved in MPBS, mixed with Celluvisc® solution (1:1) and applied as eye-drops (0.4 mL). Optical coherence tomography (OCT) imaging (Institute of Applied Physics, Russian Academy of Science, Nizhniy Novgorod, Russia) was used to measure the time course of the detachment volume change.
A previously tested in vivo rodent model of retinal detachment was used to measure the effect of IFNγ on re-absorption following retinal detachment, as described in Example 11 and in Maminishkis, A., et al., Invest Ophthalmol Vis Sci, 2002, 43, 3555-3566, incorporated herein by reference in its entirety. Initial detachment was created by injecting approximately 1 μl of osmotically-balanced, modified phosphate-buffered saline (MPBS) Ringer's solution into the extracellular space, i.e. the sub-retinal space (SRS). After stabilization of the detachment, IFNγ (40 μl of 100 ng/ml) was added to the anterior surface of the eye via eye drops (Celluvisc®). A series of 3D OCT images were recorded at different time points.

B1: IFNγ: pleiotropic cytokine produced by T- and NK-cells; obtained from Peprotech (protein, UniProt P01579 24-161, looked up)
Interferon gamma: QDPYVKEAENLKKYFNAGHSDVADNGTLFLGILKNWKEESDRKIMQSQIVSFYFKLFKNFKDDQSIQKSVETIKEDMNVKFFNSNKKKRDDFEKLTNYSVTDLNVQRKAIHELIQVMAELSPAAKTGKRKRSQMLFRG
- IRF-2 mRNA fold change (hfRPE; 25 ng/ml IFNγ, hfRPE): 3 fold
- up-regulation of IRF-1 transcription (hfRPE; 25 ng/ml IFNγ, hfRPE): > 400 fold
- up-regulation of STAT1 transcription (hfRPE; 25 ng/ml IFNγ, hfRPE): > 30 fold
- Threshold Cycle (Ct) CFTR (hfRPE; 0 hr): 38.0
- Threshold Cycle (Ct) IFNGR1 (hfRPE; 0 hr): 26.4
- Threshold Cycle (Ct) IFNGR2 (hfRPE; 0 hr): 26.0
- Threshold Cycle (Ct) IRF-1 (hfRPE; 0 hr): 31.1
- Threshold Cycle (Ct) IRF-2 (hfRPE; 0 hr): 27.6
- Threshold Cycle (Ct) PIAS1 (hfRPE; 0 hr): 27.0
- Threshold Cycle (Ct) SOCS3 (hfRPE; 0 hr): 26.9
- Threshold Cycle (Ct) STAT1 (hfRPE; 0 hr): 26.2
- Threshold Cycle (Ct) CFTR (hfRPE; 0.5 hr): 36.9
- Threshold Cycle (Ct) IFNGR1 (hfRPE; 0.5 hr): 26.4
- Threshold Cycle (Ct) IFNGR2 (hfRPE; 0.5 hr): 26.0
- Threshold Cycle (Ct) IRF-1 (hfRPE; 0.5 hr): 27.4
- Threshold Cycle (Ct) IRF-2 (hfRPE; 0.5 hr): 27.6
- Threshold Cycle (Ct) NOS2A (hfRPE; 0.5 hr): 39.1
- Threshold Cycle (Ct) PIAS1 (hfRPE; 0.5 hr): 26.9
- Threshold Cycle (Ct) SOCS3 (hfRPE; 0.5 hr): 25.4
- Threshold Cycle (Ct) STAT1 (hfRPE; 0.5 hr): 25.8
- Threshold Cycle (Ct) CFTR (hfRPE; 2 hr): 37.3
- Threshold Cycle (Ct) IFNGR1 (hfRPE; 2 hr): 26.4
- Threshold Cycle (Ct) IFNGR2 (hfRPE; 2 hr): 25.1
- Threshold Cycle (Ct) IRF-1 (hfRPE; 2 hr): 22.2
- Threshold Cycle (Ct) IRF-2 (hfRPE; 2 hr): 26.0
- Threshold Cycle (Ct) IRF-8 (hfRPE; 2 hr): 30.9
- Threshold Cycle (Ct) NOS2A (hfRPE; 2 hr): 35.9
- Threshold Cycle (Ct) PIAS1 (hfRPE; 2 hr): 27.2
- Threshold Cycle (Ct) SOCS3 (hfRPE; 2 hr): 24.6
- Threshold Cycle (Ct) STAT1 (hfRPE; 2 hr): 22.1
- Threshold Cycle (Ct) CFTR (hfRPE; 6 hr): 38.5
- Threshold Cycle (Ct) IFNGR1 (hfRPE; 6 hr): 26.3
- Threshold Cycle (Ct) IFNGR2 (hfRPE; 6 hr): 24.7
- Threshold Cycle (Ct) IRF-1 (hfRPE; 6 hr): 22.3
- Threshold Cycle (Ct) IRF-2 (hfRPE; 6 hr): 25.6
- Threshold Cycle (Ct) IRF-8 (hfRPE; 6 hr): 31.1
- Threshold Cycle (Ct) NOS2A (hfRPE; 6 hr): 31.6
- Threshold Cycle (Ct) PIAS1 (hfRPE; 6 hr): 27.1
- Threshold Cycle (Ct) SOCS3 (hfRPE; 6 hr): 24.0
- Threshold Cycle (Ct) STAT1 (hfRPE; 6 hr): 21.0
- Threshold Cycle (Ct) IFNGR1 (hfRPE; 15 hr): 26.5
- Threshold Cycle (Ct) IFNGR2 (hfRPE; 15 hr): 25.1
- Threshold Cycle (Ct) IRF-1 (hfRPE; 15 hr): 22.3
- Threshold Cycle (Ct) IRF-2 (hfRPE; 15 hr): 26.0
- Threshold Cycle (Ct) IRF-8 (hfRPE; 15 hr): 32.0
- Threshold Cycle (Ct) NOS2A (hfRPE; 15 hr): 32.7
- Threshold Cycle (Ct) PIAS1 (hfRPE; 15 hr): 26.8
- Threshold Cycle (Ct) SOCS3 (hfRPE; 15 hr): 24.8
- Threshold Cycle (Ct) STAT1 (hfRPE; 15 hr): 21.3
- Threshold Cycle (Ct) CFTR (hfRPE; 24 hr): 37.9
- Threshold Cycle (Ct) IFNGR1 (hfRPE; 24 hr): 26.3
- Threshold Cycle (Ct) IFNGR2 (hfRPE; 24 hr): 25.2
- Threshold Cycle (Ct) IRF-1 (hfRPE; 24 hr): 22.2
- Threshold Cycle (Ct) IRF-2 (hfRPE; 24 hr): 26.1
- Threshold Cycle (Ct) IRF-8 (hfRPE; 24 hr): 31.9
- Threshold Cycle (Ct) NOS2A (hfRPE; 24 hr): 33.5
- Threshold Cycle (Ct) PIAS1 (hfRPE; 24 hr): 26.7
- Threshold Cycle (Ct) SOCS3 (hfRPE; 24 hr): 24.9
- Threshold Cycle (Ct) STAT1 (hfRPE; 24 hr): 21.2
- SOCS3 mRNA levels (hfRPE; IFNγ-treated hfRPE): increased
- effect on CFTR mRNA expression (hfRPE; IFNγ-treated hfRPE): No effect; also recorded: small decrease
- effect on IFNGR1 expression (hfRPE; IFNγ-treated hfRPE): No effect
- effect on PIAS1 expression (hfRPE; IFNγ-treated hfRPE): No effect; also recorded: does not affect
- increase of SOCS3 mRNA (hfRPE; IFNγ-treated hfRPE): 7 fold
- IRF-8 mRNA detectability (hfRPE; after 2 hours of IFNγ, constitutive level under detection): became detectable
- increase in IFNGR2 expression (hfRPE; after 6 hours of IFNγ): ≈ 2 fold
- NOS2A expression (hfRPE; after 6 hours of IFNγ, constitutive levels undetectable): significantly up-regulated
- JV (fluid transport rate out of the retinal detachment) (rat RPE; IFNγ eye drops on anterior surface, t=0 to 40 minutes, FIG. 23B/E): 12 μl·cm^−2·hr^−1
- time in which rate of fluid absorption from subretinal space was significantly increased (rat RPE; IFNγ on anterior surface of the eye): less than 30 minutes
- detachment size (volume) (rat RPE; IFNγ on anterior surface, 40 or 54 minutes): decrease in detachment size
